This note sets out measurements from patent US20170349669A1 (Hoffmann-La Roche, published 2017).

A value given as a limit tells only on which side of the number the result lay.

The target in one assay is T1, human VEGFA-121-His (human, UniProt P15692-9 27-147).
T1 construct: Captured on an anti-His antibody surface; P15692 is the canonical VEGF-A entry, and the 121 isoform is one of its splice forms; also called VEFGA-121-His; not shown: His tag
T1 sequence (looked up): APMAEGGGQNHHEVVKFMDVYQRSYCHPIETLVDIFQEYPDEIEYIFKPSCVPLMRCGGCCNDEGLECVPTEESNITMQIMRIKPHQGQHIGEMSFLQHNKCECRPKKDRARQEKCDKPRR
Put plainly: SPR Biacore T200, VEGFA-121-His captured via anti-His, antibody as analyte, 1:1 Langmuir. The protocol: Binding of indicated antibodies to human VEGFA-121 was investigated by surface plasmon resonance using a BIACORE® T200 instrument (GE Healthcare). Around 10000 (RU) of anti His antibody (1 μg/ml anti His antibody; Order Code: 28995056; GE Healthcare Bio-Sciences AB, Sweden) were coupled on a Series S CM5 chip (GE Healthcare BR-1005-30) at pH 5.0 by using an amine coupling kit supplied by the GE Healthcare. HBS-N (10 mM HEPES, 150 mM NaCl pH 7.4, GE Healthcare) was used as running buffer during the immobilization procedure. For the following kinetic characterization, sample and running buffer was PBS-T (10 mM phosphate buffered saline including 0.05% Tween20) at pH 7.4. The flow cell was set to 25° C.—and the sample block set to 12° C.—and primed with running buffer twice prior to kinetic characterization.
VEFGA-121-His was captured by injecting a 0.5 μg/ml solution for 30 sec at a flow of 5 μl/min. The association was measured by injection of the indicated antibodies in various concentrations in solution for 180 sec at a flow of 30 μl/min starting with 1000 nM in 1:3 serial dilutions. The dissociation phase was monitored for up to 600 sec and triggered by switching from the sample solution to running buffer. The surface was regenerated by 60 sec washing with a Glycine pH 1.5 solution at a flow rate of 30 μl/min. Bulk refractive index differences were corrected by subtracting the response obtained from a anti His antibody surface. Blank injections are also subtracted (=double referencing). For calculation of KD and other kinetic parameters the Langmuir 1:1 model was used.
In general terms: In SPR one partner is held on a chip, and binding of the other changes the refractive index at the surface.

The target of the next assay is T2, human Ang-2-RBD-Fc (human, UniProt O15123 275-496, limits assumed).
T2 construct: domain: RBD; Used as analyte in solution; The KD is called apparent; not shown: Fc part
T2 sequence (looked up): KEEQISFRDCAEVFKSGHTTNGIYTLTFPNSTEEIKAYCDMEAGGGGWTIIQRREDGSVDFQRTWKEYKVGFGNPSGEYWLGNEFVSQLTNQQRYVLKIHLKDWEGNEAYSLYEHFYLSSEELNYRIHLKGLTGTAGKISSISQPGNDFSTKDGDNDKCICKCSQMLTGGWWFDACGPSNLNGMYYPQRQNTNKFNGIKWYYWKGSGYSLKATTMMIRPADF
Kind of assay: SPR Biacore T200, apparent KD, antibody captured via anti-human F(ab')2, Ang2-RBD-Fc as analyte. The protocol:
Binding of indicated antibodies to human Ang-2-RBD-Fc was investigated by surface plasmon resonance using a BIACORE® T200 instrument (GE Healthcare). Around 8000 (RU) of goat anti human F(ab′)₂ (10 μg/ml anti human F(ab)′₂; Order Code: 28958325; GE Healthcare Bio-Sciences AB, Sweden) were coupled on a Series S CM5 chip (GE Healthcare BR-1005-30) at pH 5.0 by using an amine coupling kit supplied by the GE Healthcare. HBS-N (10 mM HEPES, 150 mM NaCl pH 7.4, GE Healthcare) was used as running buffer during the immobilization procedure. For the following kinetic characterization, sample and running buffer was PBS-T (10 mM phosphate buffered saline including 0.05% Tween20) at pH 7.4. The flow cell was set to 25° C.—and the sample block set to 12° C.—and primed with running buffer twice prior to kinetic characterization.
The bispecific antibody was captured by injecting a 5 nM solution for 25 sec at a flow of 5 μl/min. The association was measured by injection of human Ang2-RBD-Fc in various concentrations in solution for 120 sec at a flow of 30 μl/min starting with 100 nM in 1:3 serial dilutions. The dissociation phase was monitored for up to 180 sec and triggered by switching from the sample solution to running buffer. The surface was regenerated by 60 sec washing with a Glycine pH 2.1 solution at a flow rate of 30 μl/min. Bulk refractive index differences were corrected by subtracting the response obtained from a goat anti human F(ab′)₂ surface. Blank injections are also subtracted (=double referencing). For calculation of apparent KD the Langmuir 1:1 model was used.

Another assay deals with T3, TWEAK (human, UniProt O43508 94-249, limits assumed).
T3 construct: The assay paragraph says only 'TWEAK'; also called human TWEAK; TNF-related weak inducer of apoptosis
T3 sequence (looked up): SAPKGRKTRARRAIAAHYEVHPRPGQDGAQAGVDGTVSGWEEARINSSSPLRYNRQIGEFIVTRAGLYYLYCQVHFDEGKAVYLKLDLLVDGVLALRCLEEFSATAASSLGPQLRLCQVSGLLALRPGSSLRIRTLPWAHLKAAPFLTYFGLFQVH
Kind of assay: SPR Biacore T200 25 C, apparent KD, TWEAK amine-coupled on C1 chip, antibody as analyte.

For the next assay, the target named is T4, human IL17 (human, UniProt Q16552 24-155).
T4 construct: Used as analyte in solution; also called IL17-A
T4 sequence (looked up): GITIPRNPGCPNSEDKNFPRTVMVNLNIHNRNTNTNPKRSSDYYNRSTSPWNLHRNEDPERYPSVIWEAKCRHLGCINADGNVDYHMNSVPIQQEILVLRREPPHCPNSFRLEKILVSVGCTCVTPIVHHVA
Put plainly: SPR Biacore T200 25 C, antibody captured via anti-human F(ab')2, human IL17 as analyte, 1:1 Langmuir. The protocol: Around 6000 resonance units (RU) of the capturing system (15 μg/ml goat anti human F(ab′)2; Order Code: 28958325; GE Healthcare Bio-Sciences AB, Schweden) were coupled on a CM5 chip at pH 5.0 by using an amine coupling kit supplied by the GE Healthcare. The sample and system buffer was PBS-T (10 mM phosphate buffered saline including 0.05% Tween 20) pH 7.4. The bispecific antibody was captured by injecting a 50 nM solution for 90 sec at a flow of 10 μl/min. Association was measured by injection human IL17 in various concentrations in solution for 3 min at a flow of 30 μl/min starting with 50 nM in 1:1 serial dilutions. The dissociation phase was monitored for up to 10 min and triggered by switching from the sample solution to running buffer. The surface was regenerated twice by 60 sec wash with a 10 mM glycine pH 2.1 solution at a flow rate of 30 μl/min. Bulk refractive index differences were corrected by subtracting the response obtained from a goat anti human F(ab′)2 surface. Blank injections are also subtracted (=double referencing). For calculation of apparent KD and other kinetic parameters, the Langmuir 1:1 model was used.

B1: Ang2VEGF_469 (bispecific antibody, human IgG1, kappa)
heavy 1: not shown
light 1: EVQLVESGGGLVQPGGSLRLSCAASGYTFTNYGMNWVRQAPGKGLEWVGWINTYTGEPTYAADFKRRFTFSLDTSKSTAYLQMNSLRAEDTAVYYCAKYPHYYGSSHWYFDVWGQGTLVTVSSASTKGPSVFPLAPSSKSTSGGTAALGCLVEDYFPEPVTVSWNSGALTSGVHTFPAVLQSSGLYSLSSVVTVPSSSLGTQTYICNVNHKPSNTKVDEKVEPKSC
heavy 2: not shown
light 2: QPGLTQPPSVSVAPGQTARITCGGNNIGSKSVHWYQQKPGQAPVLVVYDDSDRPSGIPERFSGSNSGNTATLTISRVEAGDEADYYCQVWDSSSDHYVFGTGTKVTVLRTVAAPSVFIFPPSDEQLKSGTASVVCLLNNFYPREAKVQWKVDNALQSGNSQESVTEQDSKDSTYSLSSTLTLSKADYEKHKVYACEVTHQGLSSPVTKSFNRGEC
notes: The charged substitutions are in the crossed (VEGF) arm
Consider B1, for which the Kd came to 13 nM with human VEGFA-121-His and 3 nM in the assay with human Ang-2-RBD-Fc.

B2: Ang2VEGF_470 (bispecific antibody, human IgG1, kappa)
heavy 1: not shown
light 1: EVQLVESGGGLVQPGGSLRLSCAASGYTFTNYGMNWVRQAPGKGLEWVGWINTYTGEPTYAADFKRRFTFSLDTSKSTAYLQMNSLRAEDTAVYYCAKYPHYYGSSHWYFDVWGQGTLVTVSSASTKGPSVFPLAPSSKSTSGGTAALGCLVEDYFPEPVTVSWNSGALTSGVHTFPAVLQSSGLYSLSSVVTVPSSSLGTQTYICNVNHKPSNTKVDEKVEPKSC
heavy 2: not shown
light 2: QPGLTQPPSVSVAPGQTARITCGGNNIGSKSVHWYQQKPGQAPVLVVYDDSDRPSGIPERFSGSNSGNTATLTISRVEAGDEADYYCQVWDSSSDHYVFGTGTKVTVLRTVAAPSVFIFPPSDEELKSGTASVVCLLNNFYPREAKVQWKVDNALQSGNSQESVTEQDSKDSTYSLSSTLTLSKADYEKHKVYACEVTHQGLSSPVTKSFNRGEC
notes: The charged substitutions are in the crossed (VEGF) arm, with Q124E added in the Ang2 light chain
B2: the Kd in the assay with human VEGFA-121-His was found to be 12 nM; in the assay with human Ang-2-RBD-Fc, 3 nM.

B3: TweakIL17_102 (bispecific antibody, human IgG4 S228P, kappa)
heavy 1: DIQMTQSPSSVSASVGDRVTITCQASQNIYSNLAWYQQKPGKAPKLLIYTASYLASGVPSRFSGSGSGTDYTLTISSLQPEDFATYYCQTAYYNSRPDTVAFGGGTKVEIKRTVAAPSVFIFPPSDEQLKSGTASVVCLLNNFYPREAKVQWKVDNALQSGNSQESVTEQDSKDSTYSLSSTLTLSKADYEKHKVYACEVTHQGLSSPVTKSFNRGECPPCPPCPAPEFEGGPSVFLFPPKPKDTLMISRTPEVTCVVVDVSQEDPEVQFNWYVDGVEVHNAKTKPREEQFNSTYRVVSVLTVLHQDWLNGKEYKCKVSNKGLPSSIEKTISKAKGQPREPQVYTLPPCQEEMTKNQVSLWCLVKGFYPSDIAVEWESNGQPENNYKTTPPVLDSDGSFFLYSRLTVDKSRWQEGNVFSCSVMHEALHNHYTQKSLSLSL
light 1: QVQLVQSGAEVKKPGSSVKVSCKASGFDFSTYYMSWVRQAPGQGLEWMGTVYVRQGTTYYASWLNGRVTITADESTSTAYMELSSLRSEDTAVYYCARGGYNYDDAFVIWGQGTLVTVSSASTKGPSVFPLAPCSRSTSESTAALGCLVKDYFPEPVTVSWNSGALTSGVHTFPAVLQSSGLYSLSSVVTVPSSSLGTKTYTCNVDHKPSNTKVDKRVESKYG
heavy 2: EVQLVESGGGLVQPGGSLRLSCAASGFSLDSYGVHWVRQATGKGLEWVSVIWSDGTTTYNSALKSRFTISRENAKNSLYLQMNSLRAGDTAVYYCARDTHYRLYYYAMDYWGQGTTVTVSSASTKGPSVFPLAPCSRSTSESTAALGCLVEDYFPEPVTVSWNSGALTSGVHTFPAVLQSSGLYSLSSVVTVPSSSLGTKTYTCNVDHKPSNTKVDERVESKYGPPCPPCPAPEFEGGPSVFLFPPKPKDTLMISRTPEVTCVVVDVSQEDPEVQFNWYVDGVEVHNAKTKPREEQFNSTYRVVSVLTVLHQDWLNGKEYKCKVSNKGLPSSIEKTISKAKGQPREPQVCTLPPSQEEMTKNQVSLSCAVKGFYPSDIAVEWESNGQPENNYKTTPPVLDSDGSFFLVSRLTVDKSRWQEGNVFSCSVMHEALHNHYTQKSLSLSL
light 2: DIVMTQSPLSLPVTPGEPASISCRSSQSLVHSNGDTYFHWYLQKPGQSPQLLIYKVSNRFSGVPDRFSGSGSGTDFTLKISRVEAEDVGVYYCSQTTHAPFTFGQGTKLEIKRTVAAPSVFIFPPSDKKLKSGTASVVCLLNNFYPREAKVQWKVDNALQSGNSQESVTEQDSKDSTYSLSSTLTLSKADYEKHKVYACEVTHQGLSSPVTKSFNRGEC
notes: also called TweakIL17_0102
On to B3, for which the Kd with TWEAK is < 0.1 nM; with human IL17 it was 0.1 nM.
